The target of this assay is β-amyloid1-42 (UniProt P05067). Nature of the assay: cell-based or functional assay.

As for D-Trp-Aib (peptide), the amount of globulomers (densitometry of the 6E10 western blot) (% of the control) is 45.

The values above are taken from patent US20100022459A1.
